Results on 1 molecule are retold here after PMC5473912, “Regulation of sub-compartmental targeting and folding properties of the Prion-like protein Shadoo” (Scientific Reports, 2017).

This assay addresses T1, Calreticulin (CRT), endogenous mouse (mouse (endogenous in GT1), UniProt P14211 18-416).
T1 construct: Calreticulin (CRT), mouse, immunoprecipitated with anti-CRT antibody; also called ER chaperone Calreticulin; source: endogenous, GT1 lysate
T1 sequence (looked up): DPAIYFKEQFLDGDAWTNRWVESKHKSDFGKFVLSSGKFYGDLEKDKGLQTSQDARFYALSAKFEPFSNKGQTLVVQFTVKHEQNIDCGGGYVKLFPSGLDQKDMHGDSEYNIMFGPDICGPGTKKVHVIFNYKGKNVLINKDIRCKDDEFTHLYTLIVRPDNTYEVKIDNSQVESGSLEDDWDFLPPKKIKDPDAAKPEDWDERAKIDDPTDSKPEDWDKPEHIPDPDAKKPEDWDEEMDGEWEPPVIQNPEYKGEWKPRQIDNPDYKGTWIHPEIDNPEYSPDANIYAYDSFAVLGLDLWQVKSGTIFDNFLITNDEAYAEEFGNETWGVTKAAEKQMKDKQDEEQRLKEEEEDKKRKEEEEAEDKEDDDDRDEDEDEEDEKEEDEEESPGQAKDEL
The assay can be described thus: co-IP; Calreticulin immunoprecipitated from GT1 lysates (JS buffer, 1% TX-100, 150 mM NaCl, pH 7.5) with anti-CRT Ab and protein A-Sepharose overnight at 4 °C; Sho revealed by Western blot with SPRN-R12; cells under control conditions or cholesterol depletion (βCD 10 mM, 1 h). Particulars: partners not purified. (In general: A western blot detects proteins with antibodies after separation by electrophoresis.)

B1: Shadoo (Sho), mature fully glycosylated ~22 kDa isoform, endogenous mouse (natural protein, mouse (endogenous in GT1), UniProt Q8BWU1 25-122, looked up)
chain: KGGRGGARGSARGVRGGARGASRVRVRPAPRYGSSLRVAAAGAAAGAAAGVAAGLATGSGWRRTSGPGELGLEDDENGAMGGNGTDRGVYSYWAWTSG
modifications: fully N-glycosylated (complex-glycosylated)
notes: Shadoo (Sho, SPRN), mouse, the mature fully glycosylated isoform that migrates at ~22 kDa; also called mature Sho; mature glycosylated Sho; source: endogenous, GT1 lysate
Regarding B1, the “fold increase in the immunocomplex upon cholesterol depletion against control” value was around 3 fold.
